Results from paper PMC3234216 (PLoS Pathogens, 2011).

Biological target: PA63 heptamer (63 kD form of anthrax toxin protective antigen) (Bacillus anthracis, UniProt P13423)
Assay: NMR titration
Settings: both partners purified

PA63 heptamer (63 kD form of anthrax toxin protective antigen), sequence (P13423 197-764): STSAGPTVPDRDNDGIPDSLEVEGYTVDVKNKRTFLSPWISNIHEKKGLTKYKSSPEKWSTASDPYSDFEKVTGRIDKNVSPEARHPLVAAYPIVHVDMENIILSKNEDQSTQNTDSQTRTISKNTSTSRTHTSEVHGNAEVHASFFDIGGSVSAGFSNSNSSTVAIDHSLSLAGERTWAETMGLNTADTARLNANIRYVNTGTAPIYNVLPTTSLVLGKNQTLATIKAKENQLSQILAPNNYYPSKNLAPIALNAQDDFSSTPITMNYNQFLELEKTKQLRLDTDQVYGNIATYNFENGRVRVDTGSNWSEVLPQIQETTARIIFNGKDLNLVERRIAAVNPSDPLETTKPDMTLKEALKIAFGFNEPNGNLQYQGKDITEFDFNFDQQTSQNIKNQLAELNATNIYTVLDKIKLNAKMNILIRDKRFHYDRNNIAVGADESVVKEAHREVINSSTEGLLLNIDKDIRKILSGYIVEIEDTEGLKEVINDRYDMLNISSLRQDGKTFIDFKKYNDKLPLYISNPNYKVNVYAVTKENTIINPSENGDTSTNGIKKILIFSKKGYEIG

B1: ANTXR2 VWA-domain (anthrax toxin receptor type 2, extracellular von Willebrand factor type A domain) (domain or fragment)
chain: SCRRAFDLYFVLDKSGSVANNWIEIYNFVQQLAERFVSPEMRLSFIVFSSQATIILPLTGDRGKISKGLEDLKRVSPVGETYIHEGLKLANEQIQKAGGLKTSSIIIALTDGKLDGLVPSYAEKEAKISRSLGASVYCVGVLDFEQAQLERIADSKEQVFPVKGGFQALKGIINSILAQSC
notes: also called capillary morphogenesis protein 2; CMG2
Does B1 bind?
Result: binds
